Data as given in paper PMC3440374, “High Inorganic Triphosphatase Activities in Bacteria and Mammalian Cells: Identification of the Enzymes Involved” (PLoS ONE, 2012).

Key:
CyaB = molecular target: T1, CyaB (Aeromonas hydrophila, UniProt O69199); assay: inorganic phosphate release, colorimetric; assay type: biochemical; conditions: 0.5 mM substrate, 5 mM Mg2+ or Mn2+, pH 9.1, 50°C
T1 construct: full length from first Met, cloned in PVP16 as 8HIS-MBP fusion, tag removed by TEV digestion; produced in E. coli BL21DE3; nickel column
T1 sequence (O69199 1-191): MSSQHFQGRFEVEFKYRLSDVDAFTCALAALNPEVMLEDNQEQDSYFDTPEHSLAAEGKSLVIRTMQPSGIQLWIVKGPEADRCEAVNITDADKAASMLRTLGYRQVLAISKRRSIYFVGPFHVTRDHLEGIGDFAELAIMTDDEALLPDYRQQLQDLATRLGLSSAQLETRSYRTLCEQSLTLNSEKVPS

[1] = substrate: O=P(O)(O)OP(=O)(O)OP(=O)(O)O; assay: inorganic phosphate release, colorimetric, Michaelis-Menten fit; assay type: biochemical, Escherichia coli; conditions: 5 mM Mg2+, pH 8.5, 50°C
[2] = substrate: O=P(O)(O)OP(=O)(O)OP(=O)(O)O; assay: inorganic phosphate release, colorimetric; assay type: biochemical, Escherichia coli; conditions: 10 mM Mg2+, 50 mM CHES pH 9.1, 25°C

## O=P(O)(O)OP(=O)(O)OP(=O)(O)O [PPPi]
CyaB
  inorganic phosphate release, colorimetric: it indeed hydrolyzes substrates such as ATP, ThTP and PPPi but at a low rate

## Cc1ncc(C[n+]2csc(CCOP(=O)(O)OP(=O)(O)OP(=O)(O)O)c2C)c(N)n1 [ThTP]
CyaB
  inorganic phosphate release, colorimetric: it indeed hydrolyzes substrates such as ATP, ThTP and PPPi but at a low rate

B1: GST-ygiF (Escherichia coli K-12) (protein)
chain: MAQEIELKFIVNHSAVEALRDHLNTLGGEHHDPVQLLNIYYETPDNWLRGHDMGLRIRGENGRYEMTMKVAGRVTGGLHQRPEYNVALSEPTLDLAQLPTEVWPNGELPADLASRVQPLFSTDFYREKWLVAVDGSQIEIALDQGEVKAGEFAEPICELELELLSGDTRAVLKLANQLVSQTGLRQGSLSKAARGYHLAQGNPAREIKPTTILHVAAKADVEQGLEAALELALAQWQYHEELWVRGNDAAKEQVLAAISLVRHTLMLFGGIVPRKASTHLRDLLTQCEATIASAVSAVTAVYSTETAMAKLALTEWLVSKAWQPFLDAKAQGKISDSFKRFADIHLSRHAAELKSVFCQPLGDRYRDQLPRLTRDIDSILLLAGYYDPVVAQAWLENWQGLHHAIATGQRIEIEHFRNEANNQEPFWLHSGKR
notes: produced in E. coli DH5alpha, GSTrap purified
[1]
  Km: 270 ± 25 µM

B2: EcPPase (Escherichia coli K-12) (protein)
chain: SLLNVPAGKDLPEDIYVVIEIPANADPIKYEIDKESGALFVDRFMSTAMFYPCNYGYINHTLSLDGDPVDVLVPTPYPLQPGSVIRCRPVGVLKMTDEAGEDAKLVAVPHSKLSKEYDHIKDVNDLPELLKAQIAHFFEHYKDLEKGKWVKVEGWENAEAAKAEIVASFERAKNK
notes: commercial purified recombinant preparation (Sigma-Aldrich); 20 kDa per subunit
[2]
  Km: 0.91 ± 0.09 mM
  kcat: 16.7 s⁻¹
